{"source": "paper PMC5122715", "about": "“A Novel, Molybdenum-Containing Methionine Sulfoxide Reductase Supports Survival of Haemophilus influenzae in an In vivo Model of Infection” (Frontiers in Microbiology, 2016)", "test_in_all_cases": "purified protein", "key": {"C[N+](C)(C)[O-]": {"system": "C[N+](C)(C)[O-]", "conditions": "0.2 mM benzyl viologen, 0.3 mM dithionite, 20 mM sodium phosphate pH 6.8, 37°C"}, "C[S+](C)[O-]": {"system": "C[S+](C)[O-]", "conditions": "0.2 mM benzyl viologen, 0.3 mM dithionite, 20 mM sodium phosphate pH 6.8, 37°C"}, "C[S+]([O-])CCC(N)C(=O)O": {"system": "C[S+]([O-])CCC(N)C(=O)O", "conditions": "0.2 mM benzyl viologen, 0.3 mM dithionite, 20 mM sodium phosphate pH 6.8, 37°C, concentration of the whole racemic mixture"}, "[1]": {"system": "O=C(O)CCCC[C@H]1[C@H]2NC(=O)N[C@H]2C[S@+]1[O-]", "conditions": "0.2 mM benzyl viologen, 0.3 mM dithionite, 20 mM sodium phosphate pH 6.8, 37°C"}}}
{"substance": "HI rTorZ (TorZ/MtsZ) (Haemophilus influenzae Rd KW20)", "values": [{"measurement": "Km", "setting": "C[N+](C)(C)[O-]", "value": "6700 ± 2000", "unit": "µM"}, {"measurement": "kcat", "setting": "C[N+](C)(C)[O-]", "value": "435 ± 52.1", "unit": "s⁻¹"}, {"measurement": "kcat/Km", "setting": "C[N+](C)(C)[O-]", "value": 64900, "unit": "M⁻¹ s⁻¹"}, {"measurement": "Km", "setting": "C[S+](C)[O-]", "value": "140 ± 50", "unit": "µM"}, {"measurement": "kcat", "setting": "C[S+](C)[O-]", "value": "85.4 ± 9.1", "unit": "s⁻¹"}, {"measurement": "kcat/Km", "setting": "C[S+](C)[O-]", "value": 650000, "unit": "M⁻¹ s⁻¹"}, {"measurement": "Km", "setting": "C[S+]([O-])CCC(N)C(=O)O", "value": "410 ± 80", "unit": "µM"}, {"measurement": "kcat", "setting": "C[S+]([O-])CCC(N)C(=O)O", "value": "91.7 ± 4.4", "unit": "s⁻¹"}, {"measurement": "kcat/Km", "setting": "C[S+]([O-])CCC(N)C(=O)O", "value": 224000, "unit": "M⁻¹ s⁻¹"}, {"measurement": "Km", "setting": "[1]", "value": "1520 ± 280", "unit": "µM"}, {"measurement": "kcat", "setting": "[1]", "value": "183 ± 10.9", "unit": "s⁻¹"}, {"measurement": "kcat/Km", "setting": "[1]", "value": 120000, "unit": "M⁻¹ s⁻¹"}]}
